Reference: patent US20190031783A1 (AbbVie / Abbott, published 2019)

Columns and labels:
[1] = target: human DLL4, full-length, expressed on HEK293G cells (human, UniProt Q9NR61 27-685); assay: cell-based or functional assay
[2] = target: T1, full-length human DLL4 on HEK293G cells (human, UniProt Q9NR61 27-685); assay: cell-based or functional assay
[3] = target: T2, purified recombinant human DLL4 extracellular domain (ECD) (human, UniProt Q9NR61 27-529); assay: SPR (Biacore), DVD captured via anti-human Fc, DLL4 ECD injected, 25 C
T2 construct: extracellular domain; also called human DLL4529; huDLL4
Protocol: (§1) For DLL4 binding kinetic measurements the assay buffer was HBS-EPB: 10 mM Hepes, pH7.5, 150 mM NaCl, 3 mM EDTA, 0.005% Tween 20, 0.1 mg/ml BSA (Sigma A7906). For VEGF binding kinetic measurements the assay buffer was HBS-EP+(3N01B): 10 mM Hepes, pH7.5, 300 mM NaCl, 3 mM EDTA, 0.05% Tween 20, 0.1 mg/ml BSA (Sigma A7906). For example, approximately 9000 RU of goat anti-human Fc specific polyclonal antibody (Thermo Fisher Scientific Inc., Rockford, Ill.) diluted in 10 mM sodium acetate (pH 4.5) is directly immobilized across a CM5 research grade biosensor chip using a standard amine coupling kit according to manufacturer's instructions and procedures at 25 ug/ml. Unreacted moieties on the biosensor surface are blocked with ethanolamine. For kinetic analysis, rate equations derived from the 1:1 Langmuir binding model are fitted simultaneously to multiple antigen injections (using global fit analysis) with the use of Scrubber 2 (BioLogic Software), Biacore Biaevaluation 4.0.1 software or Biacore T100 Evaluation software. Purified antibodies are diluted in running buffer for capture across goat anti-human Fc reaction surfaces. Antibodies to be captured as a ligand (1 ug/ml) are injected over reaction matrices at a flow rate of 10 ul/min. During the assay, all measurements are referenced against the capture surface alone (i.e. with no captured antibody). […] The equilibrium dissociation constant KD (M) of the reaction between antibodies and the target antigen is then calculated from the kinetic rate constants by the following formula: KD=Koff/Kₒₙ. Binding is recorded as a function of time and kinetic rate constants are calculated.

[4] = target: T1, full-length human DLL4 on HEK293G cells; assay: flow cytometry (FACS) on HEK293G cells overexpressing full-length DLL4
Protocol: Stable HEK293G cell lines overexpressing full-length DLL4 were harvested from tissue culture flasks, washed four times and resuspended in phosphate buffered saline (PBS) containing 1% bovine serum albumin and 1 mM CaCl₂ (FACS buffer). 1.5×10⁵ cells were incubated with DVD binding proteins at various concentrations in FACS buffer for 60 minutes on ice. […] Following an incubation on ice (4° C., 60 minutes), cells were washed three times and resuspended in FACS buffer. Fluorescence was measured using a Becton Dickinson FACSCalibur-HTS (Becton Dickinson, San Jose, Calif.). Data was analyzed using Graphpad Prism software and EC₅₀ values were reported as the concentration of antibody to achieve 50% of maximal antibodies binding to DLL4 expressing cells.

[5] = target: T2, purified recombinant human DLL4 …; assay: SPR (Biacore), antibody captured via anti-human Fc, DLL4 ECD injected, 25 C
Protocol: as §1

[6] = target: T2, purified recombinant human DLL4 …; assay: Notch competition ELISA: inhibition of biotin DLL4 ECD binding to coated human Notch-1
Protocol: Plates were then washed 3× with wash buffer (PBS, 0.05% Tween-20) and blocked with 200 μl/well blocking buffer (D-PBS, 1% BSA, 1 mM CaCl₂, 0.05% Tween-20) for 1 hour at 25° C. […] Assay plates were washed after blocking, and incubated with DLL4/antibody mixtures (100 μl/well, 1 hour at 25° C. with shaking). Plates were washed again and 100 μl/well of streptavidin conjugated with HRP (Fitzgerald #65R-S104PHRPx, diluted 1:5,000 in blocking buffer) was added for 1 hour at 25° C. with shaking. After a final wash, plates were developed using 100 μl/well substrate (TMB Sigma #T8665), and the reaction was stopped using 100 μl/well 1N HCl, and the absorbance was read at 450 nm. Data was analyzed using Graphpad Prism software and IC₅₀ values were reported as the concentration of antibody required to achieve 50% reduction of DLL4 binding to Notch1.

Notch Activation IC50 [2] [nM]	Kd [3] [nM]	EC50 [4] [nM]	IC50 [6] [nM]	Binder	other results
–	–	–	–	h1A11.1-SL-Av Fab (Fab) chain 1: EVQLVESGGGLVQPGGSLRLSCAASGFTFSNFPMAWVRQAPGKGLEWVATISSSDGTTYYRDSVKGRFTISRDNAKNSLYLQMNSLRAEDTAVYYCARGYYNSPFAYWGQGTLVTVSSASTKGPEVQLVESGGGLVQPGGSLRLSCAASGYTFTNYGMNWVRQAPGKGLEWVGWINTYTGEPTYAADFKRRFTFSLDTSKSTAYLQMNSLRAEDTAVYYCAKYPHYYGSSHWYFDVWGQGTLVTVSS chain 2: not shown	IC50 (nM), DLL4 neutralization cellular assay, 0 nM VEGF [1]: > 40 nM; IC50 (nM), DLL4 neutralization cellular assay, 150 nM BSG2 present [1]: > 40 nM; IC50 (nM), DLL4 neutralization cellular assay, 150 nM VEGF present [1]: 4.56 nM
7.47	12	3.75	–	h1A11.1-SS-Av (bispecific antibody, human IgG1, DVD-Ig; also called h1A11.1-SS-Av DVD) VH: EVQLVESGGGLVQPGGSLRLSCAASGFTFSNFPMAWVRQAPGKGLEWVATISSSDGTTYYRDSVKGRFTISRDNAKNSLYLQMNSLRAEDTAVYYCARGYYNSPFAYWGQGTLVTVSSASTKGPEVQLVESGGGLVQPGGSLRLSCAASGYTFTNYGMNWVRQAPGKGLEWVGWINTYTGEPTYAADFKRRFTFSLDTSKSTAYLQMNSLRAEDTAVYYCAKYPHYYGSSHWYFDVWGQGTLVTVSS VL: DIQMTQSPSSLSASVGDRVTITCRASEDIYSNLAWYQQKPGKAPKLLIYDTNNLADGVPSRFSGSGSGTDFTLTISSLQPEDFATYYCQQYNNYPPTFGQGTKLEIKRTVAAPDIQMTQSPSSLSASVGDRVTITCSASQDISNYLNWYQQKPGKAPKVLIYFTSSLHSGVPSRFSGSGSGTDFTLTISSLQPEDFATYYCQQYSTVPWTFGQGTKVEIKR	–
–	–	–	–	humanized anti-DLL4 mAb (h1A11.1) (antibody, V domains shown, Parental humanized anti-DLL4 mAb) VH: EVQLVESGGGLVQPGGSLRLSCAASGFTFSNFPMAWVRQAPGKGLEWVATISSSDGTTYYRDSVKGRFTISRDNAKNSLYLQMNSLRAEDTAVYYCARGYYNSPFAYWGQGTLVTVSS VL: DIQMTQSPSSLSASVGDRVTITCRASEDIYSNLAWYQQKPGKAPKLLIYDTNNLADGVPSRFSGSGSGTDFTLTISSLQPEDFATYYCQQYNNYPPTFGQGTKLEIKR	Kd [5]: 12 nM; koff [5]: 0.00193 s⁻¹; kon [5]: 160000 M⁻¹ s⁻¹
4.56	–	5.04	0.79	h1A11.1-LL-Av (bispecific antibody, human IgG1, DVD-Ig; also called h1A11.1-LL-Av DVD) VH: EVQLVESGGGLVQPGGSLRLSCAASGFTFSNFPMAWVRQAPGKGLEWVATISSSDGTTYYRDSVKGRFTISRDNAKNSLYLQMNSLRAEDTAVYYCARGYYNSPFAYWGQGTLVTVSSASTKGPSVFPLAPEVQLVESGGGLVQPGGSLRLSCAASGYTFTNYGMNWVRQAPGKGLEWVGWINTYTGEPTYAADFKRRFTFSLDTSKSTAYLQMNSLRAEDTAVYYCAKYPHYYGSSHWYFDVWGQGTLVTVSS VL: DIQMTQSPSSLSASVGDRVTITCRASEDIYSNLAWYQQKPGKAPKLLIYDTNNLADGVPSRFSGSGSGTDFTLTISSLQPEDFATYYCQQYNNYPPTFGQGTKLEIKRTVAAPSVFIFPPDIQMTQSPSSLSASVGDRVTITCSASQDISNYLNWYQQKPGKAPKVLIYFTSSLHSGVPSRFSGSGSGTDFTLTISSLQPEDFATYYCQQYSTVPWTFGQGTKVEIKR	–
4.59	11	5	0.76	h1A11.1-LS-Av (bispecific antibody, human IgG1, DVD-Ig; also called h1A11.1-LS-Av DVD) VH: EVQLVESGGGLVQPGGSLRLSCAASGFTFSNFPMAWVRQAPGKGLEWVATISSSDGTTYYRDSVKGRFTISRDNAKNSLYLQMNSLRAEDTAVYYCARGYYNSPFAYWGQGTLVTVSSASTKGPSVFPLAPEVQLVESGGGLVQPGGSLRLSCAASGYTFTNYGMNWVRQAPGKGLEWVGWINTYTGEPTYAADFKRRFTFSLDTSKSTAYLQMNSLRAEDTAVYYCAKYPHYYGSSHWYFDVWGQGTLVTVSS VL: DIQMTQSPSSLSASVGDRVTITCRASEDIYSNLAWYQQKPGKAPKLLIYDTNNLADGVPSRFSGSGSGTDFTLTISSLQPEDFATYYCQQYNNYPPTFGQGTKLEIKRTVAAPDIQMTQSPSSLSASVGDRVTITCSASQDISNYLNWYQQKPGKAPKVLIYFTSSLHSGVPSRFSGSGSGTDFTLTISSLQPEDFATYYCQQYSTVPWTFGQGTKVEIKR	–
